{
  "source": "paper PMC7127234",
  "key": {"[1]": {"system": "CCCCN1C(=O)c2cccc3c(NC(=O)[C@@H]4CCCN4C(=O)CN)ccc(c23)C1=O", "assay": "purified protein", "details": "Gly-Pro group cleaved by DPP-IV to release BAN"}, "[2]": {"system": "Cc1cc(=O)oc2cc(NC(=O)[C@@H]3CCCN3C(=O)CN)ccc12", "assay": "purified protein"}},
  "data": [
    {"substance": "DPP-IV (dipeptidyl peptidase IV) (Homo sapiens)", "values": [
      {"measurement": "Km", "setting": "[1]", "value": 42.93, "unit": "µM"},
      {"measurement": "Km", "setting": "[2]", "value": 237.80, "unit": "µM"}
    ]}
  ]
}
